No end group written: not given here.
What was measured:
ubiquitin [1] = biological target: T1, ubiquitin (UniProt P0CG48 1-76, 15N labelled in the complementary NMR experiment; unlabelled otherwise); assay: ITC; 2.78 mM N4BP1 (847-896) titrated to 200 µM ubiquitin in the cell; 20 mM Tris-HCl pH 8.0, 150 mM NaCl, 5% glycerol; room temperature; one-site binding model; conditions: both partners purified
T1 construct: the model of the complex used the ubiquitin structure PDB 1D3Z and BMRB 6457; also called monoubiquitin; UBQ

ubiquitin [2] = biological target: T1, ubiquitin; assay: ITC; 3.3 mM ubiquitin titrated to 246 µM N4BP1 (847-896) in the cell; 20 mM Tris-HCl pH 8.0, 150 mM NaCl, 5% glycerol; room temperature; one-site binding model; conditions: both partners purified

B1: CoCUN domain of N4BP1 (aa 847–896), purified polypeptide (domain or fragment, human, UniProt O75113 847-896, looked up)
chain: AQRSSAETNELREALLKIFPDSEQRLKIDQILVAHPYMKDLNALSAMVLD
modifications: also: 15N isotopic labelling
notes: also called Cousin of CUBAN; N4BP1 UBD; source: bacterial expression (protocol for NMR sample preparation), purified
Kd (ubiquitin [1]): 61.8 ± 5.2 µM | dH (ubiquitin [1]): -3.11 ± 0.0956 kcal/mol | Kd (ubiquitin [2]): 49.7 ± 3.6 µM
